Measurements published in doi:10.1101/2025.08.05.25330579.

How the values were obtained:
RBM10 RRM2 WT = molecular target: T1, RBM10 RRM2 WT (UniProt P98175 300-384); experiment: ITC
T1 sequence: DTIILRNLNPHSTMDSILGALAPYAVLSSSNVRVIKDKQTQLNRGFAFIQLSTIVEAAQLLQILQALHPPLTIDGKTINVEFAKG

RBM10 RRM2 R332C = molecular target: T2, RBM10 RRM2 R332C (UniProt P98175 300-384, R332C); experiment: ITC and NMR
T2 sequence: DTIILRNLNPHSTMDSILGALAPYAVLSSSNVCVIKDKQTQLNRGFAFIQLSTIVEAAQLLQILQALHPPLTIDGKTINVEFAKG

UUGUCUGCUCCC (ssRNA) [NUMB exon 12-derived 12mer RNA]
binding result (RBM10 RRM2 WT): binds
binding signal (RBM10 RRM2 R332C): > 20 fold reduced affinity vs WT
